Source: publication PMC3724804

Assays:
[1] = biological target: human cytoplasmic γ-actin (human) (UniProt P63261)
[2] = biological target: human cytoplasmic β-actin (human) (UniProt P60709)
[3] = biological target: skeletal muscle α-actin (rabbit) (UniProt P68135)
[4] = biological target: human cytoplasmic γ-actin (human) (UniProt P63261); remark: listed apart in the source
[5] = biological target: human cytoplasmic β-actin (human) (UniProt P60709); remark: listed apart in the source
[6] = biological target: skeletal muscle α-actin (rabbit) (UniProt P68135); remark: listed apart in the source
[7] = biological target: human cytoplasmic γ-actin (human) (UniProt P63261); remark: listed apart in the source

Row | ATP turnover in the flash photolysis experiment (5 µM F-actin), relative to α-actin [1] | Motility rate: sliding velocity of tropomyosin-decorated F-actin in the in vitro motility assay, 30°C [2] | Motility rate: sliding velocity of tropomyosin-decorated F-actin in the in vitro motility assay, 30°C [3] | Motility rate: sliding velocity of tropomyosin-decorated F-actin in the in vitro motility assay, 30°C [4] | K (app,actin): F-actin concentration for half-maximal activation of steady-state ATPase (NADH-coupled assay, 25°C) [5] | kcat of actin-activated steady-state ATPase [5] | K (app,actin): F-actin concentration for half-maximal activation of steady-state ATPase (NADH-coupled assay, 25°C) [6] | kcat of actin-activated steady-state ATPase [6] | K (app,actin): F-actin concentration for half-maximal activation of steady-state ATPase (NADH-coupled assay, 25°C) [7] | kcat of actin-activated steady-state ATPase [7] | kcat of actin-activated steady-state ATPase (activity in the presence of 100 µM F-actin) [5] | kcat of actin-activated steady-state ATPase (activity in the presence of 100 µM F-actin) [6] | kcat of actin-activated steady-state ATPase (activity in the presence of 100 µM F-actin) [7] | Substance
1 | 3 fold | 35.2 nm/s | 30.1 nm/s | 32.7 nm/s | 95.1 µM | 0.67 s⁻¹ | 82 µM | 0.15 s⁻¹ | 86.9 µM | 0.63 s⁻¹ | – | – | – | human nonmuscle myosin-2B motor domain (residues 1–782) fused with two Dictyostelium discoideum α-actinin repeats (from UniProt P35580 1-782) (domain or fragment)
2 | – | – | – | – | 12.3 µM | 0.53 s⁻¹ | 12.3 µM | 0.35 s⁻¹ | 11.3 µM | 0.75 s⁻¹ | – | – | – | human myosin-7A motor domain construct (amino acids 1–747) fused with the artificial lever arm and EYFP (from UniProt Q13402 1-747) (domain or fragment)
3 | – | 60.9 nm/s | 51.7 nm/s | 61.2 nm/s | > 100 µM | – | > 100 µM | – | > 100 µM | – | 0.53 s⁻¹ | 0.17 s⁻¹ | 0.36 s⁻¹ | human nonmuscle myosin-2C1 splice variant motor domain (residues 1–807) fused with two Dictyostelium discoideum α-actinin repeats (domain or fragment)
4 | – | 84.2 nm/s | 76.3 nm/s | 94.6 nm/s | 94.6 µM | 0.81 s⁻¹ | 80.2 µM | 0.18 s⁻¹ | 88 µM | 0.77 s⁻¹ | – | – | – | human nonmuscle myosin-2A motor domain (residues 1–775) fused with two Dictyostelium discoideum α-actinin repeats (from UniProt P35579 1-775) (domain or fragment)
